Biological target: T1, PRs (B-form) (Homo sapiens, UniProt P06401)
T1 construct: expressed in transfected cells; host or cells: CV-1
T1 sequence (P06401 1-933): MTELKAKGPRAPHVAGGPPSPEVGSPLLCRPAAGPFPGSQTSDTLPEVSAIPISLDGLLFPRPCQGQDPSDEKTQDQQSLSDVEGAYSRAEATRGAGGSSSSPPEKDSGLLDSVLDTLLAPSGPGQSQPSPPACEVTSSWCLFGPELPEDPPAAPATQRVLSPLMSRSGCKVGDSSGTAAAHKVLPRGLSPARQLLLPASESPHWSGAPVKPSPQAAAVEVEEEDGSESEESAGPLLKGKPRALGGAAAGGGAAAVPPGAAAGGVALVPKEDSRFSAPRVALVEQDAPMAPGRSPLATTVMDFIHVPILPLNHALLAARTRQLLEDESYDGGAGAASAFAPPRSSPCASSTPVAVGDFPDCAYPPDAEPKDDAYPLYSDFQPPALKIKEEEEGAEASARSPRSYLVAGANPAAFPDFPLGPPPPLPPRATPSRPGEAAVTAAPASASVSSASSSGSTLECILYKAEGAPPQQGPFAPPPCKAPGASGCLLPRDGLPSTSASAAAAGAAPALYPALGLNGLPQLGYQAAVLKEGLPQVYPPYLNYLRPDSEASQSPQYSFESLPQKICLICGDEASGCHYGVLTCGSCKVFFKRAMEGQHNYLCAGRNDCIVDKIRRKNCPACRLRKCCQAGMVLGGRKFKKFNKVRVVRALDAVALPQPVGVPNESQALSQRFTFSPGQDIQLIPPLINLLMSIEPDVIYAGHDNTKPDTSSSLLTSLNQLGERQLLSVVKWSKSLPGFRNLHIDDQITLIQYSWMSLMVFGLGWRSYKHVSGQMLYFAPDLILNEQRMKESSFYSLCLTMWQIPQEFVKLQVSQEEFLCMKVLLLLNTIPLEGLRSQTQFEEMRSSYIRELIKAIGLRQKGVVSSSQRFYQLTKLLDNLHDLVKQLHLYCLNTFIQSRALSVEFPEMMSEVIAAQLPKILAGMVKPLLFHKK
T1 sequence (Q6EMB2 838-1281 F1267S partner limits assumed): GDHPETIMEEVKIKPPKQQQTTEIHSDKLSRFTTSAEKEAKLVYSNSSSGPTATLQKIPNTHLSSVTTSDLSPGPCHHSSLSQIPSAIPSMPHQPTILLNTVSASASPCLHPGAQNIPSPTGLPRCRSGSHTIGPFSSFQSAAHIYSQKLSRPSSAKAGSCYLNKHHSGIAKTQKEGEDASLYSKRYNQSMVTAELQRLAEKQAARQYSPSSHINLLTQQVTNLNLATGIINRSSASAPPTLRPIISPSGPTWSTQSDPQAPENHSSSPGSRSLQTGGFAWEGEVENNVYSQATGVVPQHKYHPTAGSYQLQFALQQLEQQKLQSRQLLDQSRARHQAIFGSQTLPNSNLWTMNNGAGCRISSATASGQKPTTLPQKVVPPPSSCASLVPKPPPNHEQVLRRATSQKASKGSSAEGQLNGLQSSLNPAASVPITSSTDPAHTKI
Experiment: Mammalian two-hybrid assay with VP16 full length receptor: PR
Format: cell-based
Settings: 20 nM R5020
Procedure: FIG. 6C1-3 illustrate the association of STAMP with assorted steroid/nuclear receptors, including glucocorticoid receptors (GRs), progesterone receptors (PRs), androgen receptors (ARs), estrogen receptors (ER α or β), PPARγ2 receptors, thyroid receptor beta (TR), and retinoid (α) receptors (RAR α or RXR α). Triplicate samples of CV-1 cells were transfected (as described for FIG. 6B) with GAL, or GAL fused to TIF2.4 or STAMP834C, plus VP16 fused to the indicated full length receptors and incubated with the appropriate steroid (1 μM Dex, 20 nM R5020, 1 nM R1881, 0.1 μM triiodothyronine, or 1 μM estradiol, roziglitazone, or 9-cis-retinoic acid). The average relative luciferase activities of 2-3 experiments±S.E.M. were then plotted. FIG. 6C1 illustrates the effects of STAMP association upon GR, PR and AR induced expression. FIG. 6C2 illustrates the effects of STAMP association upon ERα, ERβ and PPARγ2 induced expression. FIG. 6C3 illustrates the effects of STAMP association upon TR, RARα and RXRα induced expression.
These assays were conducted as described (He et al., 2002). […]

B1: STAMP834C: STAMP fragment amino acids 834-1277, receptor interaction domain (RID) (protein)
chain: T1 sequence (Q6EMB2 838-1281 F1267S partner limits assumed)
interaction with agonist-bound, full length PR: interacted
